Our source for the Kd values is publication PMC7072198 (2020).

This assay concerns the target EGFR extracellular domain (ECD), wild type (human, UniProt P00533 25-645). As to the kind of experiment: SPR.

B1: rLZ-8^(Mut 3) (K16A/S18A/K41A/D45A) (natural protein)
chain: SDTALIFRLAWDVKALAFDYTPNWGRGNPNNFIDTVTFPAVLTAKAYTYRVAVSGRNLGVKPSYAVESDGSQKVNFLEYNSGYGIADTNTIQVFVVDPDTNNDFIIAQWN
As for B1, binding was put at a Kd of 9.22 nM.

B2: recombinant Lingzhi-8 (rLZ-8), wild type (natural protein)
chain: MSDTALIFRLAWDVKKLSFDYTPNWGRGNPNNFIDTVTFPKVLTDKAYTYRVAVSGRNLGVKPSYAVESDGSQKVNFLEYNSGYGIADTNTIQVFVVDPDTNNDFIIAQWN
As to B2, the Kd turned out to be 4.75 nM.

Usually Kd stands for the concentration at which binding is half-saturated. A low value points to tighter binding.
